Patent publication US6372898 (SCHERING, dated 2002)
Changes are numbered by the printed parent chain. Names and notes keep the numbering of the source. Like-named read-outs stand apart in the source and are kept apart here. One block for each binder: values may come before it.

Columns and labels:
[1] = system: T1, cytokine receptor common gamma chain (γc), wild type
T1 sequence: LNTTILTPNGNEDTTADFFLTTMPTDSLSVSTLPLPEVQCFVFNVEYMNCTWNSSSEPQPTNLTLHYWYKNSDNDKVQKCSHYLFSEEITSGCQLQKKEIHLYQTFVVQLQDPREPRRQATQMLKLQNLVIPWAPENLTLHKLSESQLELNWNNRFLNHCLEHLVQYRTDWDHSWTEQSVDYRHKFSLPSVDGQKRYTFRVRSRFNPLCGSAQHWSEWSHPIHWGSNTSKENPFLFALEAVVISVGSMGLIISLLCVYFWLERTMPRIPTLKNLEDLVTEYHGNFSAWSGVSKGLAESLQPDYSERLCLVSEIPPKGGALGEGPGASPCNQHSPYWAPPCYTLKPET

[2] = target: T2, cytokine receptor common gamma chain (γc), wild type (human, UniProt P31785 23-369); test: co-immunoprecipitation from 293T lysates; γc precipitated, blot for the epitope-tagged Jak3 fragment
T2 construct: also called WT γc; gc
T2 sequence: T1 sequence
Procedure: (§1) Lysates were centrifuged at 12,000×g, and NaCl was added to 500 mM final concentration. Lysates were immunoprecipitated with the appropriate antibody. Rabbit polyclonal, mouse monoclonal (M2), and Sepharose-conjugated M2 anti-FLAG antibodies were purchased from Kodak Scientific Imaging Systems (Rochester, N.Y.), Goat anti-γ_c antibody was purchased from R&D (Minneapolis, Minn.). Lysates were boiled, and subjected to 8% SDS-PAGE or 12% SDS-PAGE for experiments with Jak3 fragments, and electrotransferred onto […] membranes (Immobilon-P, Millipore, Bradford, Mass.). Membranes were probed with one of the following antibodies: Mouse monoclonal M2 anti-FLAG antibody, rabbit polyclonal anti-γ_c antibody, or mouse monoclonal anti-Myc tag antibody 9E10 (Santa Cruz Biotechnology, Santa Cruz, Calif.). For the immunoprecipitation with EBV-transformed B cell lines and the IL-2R expressing fibroblasts, cells were lysed as described above, except with a final NaCl concentration of 150 mM. Lysates were immunoprecipitated with monoclonal (M2) anti-FLAG antibody, rabbit polyclonal antibody directed against the C-terminus of Jak3 (α-Jak3; Kawamura, et al. (1994) *Proc Nat'l Acad Sci USA* 91:6374–8) or rabbit polyclonal antibody specific for STAT5b (Santa Cruz Biotechnology, Santa Cruz, Calif.). Immunoprecipitates were then washed, boiled, and resolved using SDS-PAGE. […]

[3] = target: T3, cytokine receptor common gamma chain (γc), wild type
T3 chain: T1 sequence

[4] = target: T2, cytokine receptor common gamma chain …; test: co-immunoprecipitation (summary of the combined results)
[5] = target: T2, cytokine receptor common gamma chain …; test: co-immunoprecipitation from 293T lysates; anti-FLAG M2 IP of FLAG-tagged Jak3, blot for γc
Procedure: as §1

[6] = target: T2, cytokine receptor common gamma chain …; test: co-immunoprecipitation, 293T cells

- binding result [2]: no binding
B3: Jak3 fragment J3 1-109 (other, not shown: small tags and cut ends)
chain: MAPPSEETPLIPQRSCSLLSTEAGALHVLLPARAPGPPQRLSFSFGDHLAEDLCVQAAKASGILPVYHSLFALATEDLSCWFPPSHIFSVEDASTQVLLYRIRFYFPNW

- binding result [4]: no binding
B5: Jak3 Y100A mutant (enzyme)
chain: MAPPSEETPLIPQRSCSLLSTEAGALHVLLPARAPGPPQRLSFSFGDHLAEDLCVQAAKASGILPVYHSLFALATEDLSCWFPPSHIFSVEDASTQVLLARIRFYFPNWFGLEKCHRFGLRKDLASAILDLPVLEHLFAQHRSDLVSGRLPVGLSLKEQGECLSLAVLDLARMAREQAQRPGELLKTVSYKACLPPSLRDLIQGLSFVTRRAIRRTVRRALPRVAACQADRHSLMAKYIMDLERLDPAGAAETFHVGLPGALGGHDGLGLLRVAGDGGIAWTQGEQEVLQPFCDFPEIVDISIKQAPRVGPAGEHRLVTVTRTDNQILEAEFPGLPEALSFVALVDGYFRLTTDSQHFFCKEVAPPRLLEEVAEQCHGPITLDFAINKLKTGGSRPGSYVLRRSPQDFDSFLLTVCVQNPLGPDYKGCLIRRSPTGTFLLVGLSRPHSSLRELLATCWDGGLHVDGVAVTLTSCCIPRPKEKSNLIVVQRGHSPPTSSLVQPQSQYQLSQMTFHKIPADSLEWHENLGHGSFTKIYRGCRHEVVDGEARKTEVLLKVMDAKHKNCMESFLEAASLMSQVSYRHLVLLHGVCMAGDSTMVQEFVHLGAIDMYLRKRGHLVPASWKLQVVKQLAYALNYLEDKGLPHGNVSARKVLLAREGADGSPPFIKLSDPGVSPAVLSLEMLTDRIPWVAPECLREAQTLSLEADKWGFGATVWEVFSGVTMPISALDPAKKLQFYEDRQQLPAPKWTELALLIQQCMAYEPVQRPSFRAVIRDLNSLISSDYELLSDPTPGALAPRDGLWNGAQLYACQDPTIFEERHLKYISQLGKGNFGSVELCRYDPLAHNTGALVAVKQLQHSGPDQQRDFQREIQILKALHSDFIVKYRGVSYGPGRPELRLVMEYLPSGCLRDFLQRHRARLDASRLLLYSSQICKGMEYLGSRRCVHRDLAARNILVESEAHVKIADFGLAKLLPLDKDYYVVREPGQSPIFWYAPESLSDNIFSRQSDVWSFGVVLYELFTYCDKSCSPSAEFLRMMGCERDVPALCRLLELLEEGQRLPAPPACPAEVHELMKLCWAPSPQDRPSFSALGPQLDMLWSGSRGCETHAFTAHPEGKHHSLSFS
notes: not shown: C-terminal FLAG or Myc tag joined through a ClaI site

- binding result [5]: no binding
B7: Jak3 Y100C/Y105F double mutant (enzyme)
chain: B5 chain with A100C, Y105F
notes: not shown: C-terminal FLAG tag (single copy) joined through a ClaI site

- binding result [6]: no binding
B8: Jak3 Y100C/K855A (enzyme)
chain: B5 chain with A100C, K855A
notes: also called J3 Y100C/K855A; not shown: C-terminal FLAG or Myc tag joined through a ClaI site

- binding result [4]: no binding
B9: Jak3 L98A (enzyme)
chain: B5 chain with L98A, A100Y
notes: also called Leucine 98A; not shown: C-terminal FLAG or Myc tag joined through a ClaI site

- binding result [4]: no binding
B10: Jak3 I102A (enzyme)
chain: B5 chain with A100Y, I102A
notes: as for B5

Continued, binder first:

B1: Jak3/Jak1 chimera J3 1-130 (enzyme, part only; not given: Jak1 C-terminal part and tag)
chain, part: MAPPSEETPLIPQRSCSLLSTEAGALHVLLPARAPGPPQRLSFSFGDHLAEDLCVQAAKASGILPVYHSLFALATEDLSCWFPPSHIFSVEDASTQVLLYRIRFYFPNWFGLEKCHRFGLRKDLASAILD
- IL-2 induced tyrosine phosphorylation of STAT5b in IL-2R+ fibroblasts [1]: cells expressing the J3 1-130 chimera also failed to demonstrate STAT5b phosphorylation

B2: Jak3/Jak1 chimera J3 1-256 (enzyme, part only; not given: Jak1 C-terminal part and tag)
chain, part: MAPPSEETPLIPQRSCSLLSTEAGALHVLLPARAPGPPQRLSFSFGDHLAEDLCVQAAKASGILPVYHSLFALATEDLSCWFPPSHIFSVEDASTQVLLYRIRFYFPNWFGLEKCHRFGLRKDLASAILDLPVLEHLFAQHRSDLVSGRLPVGLSLKEQGECLSLAVLDLARMAREQAQRPGELLKTVSYKACLPPSLRDLIQGLSFVTRRAIRRTVRRALPRVAACQADRHSLMAKYIMDLERLDPAGAAETFHV
- IL-2 induced tyrosine phosphorylation of STAT5b in IL-2R+ fibroblasts [1]: the J3 1-256 chimera (encoding both of the entire JH7/JH6 regions) responded to IL-2 stimulation by tyrosine phosphorylating STAT5b
- IL-2 induced tyrosine phosphorylation of the chimera in IL-2R+ fibroblasts [1]: The smallest region of a chimeric Jak3/Jak1 which reconstituted IL-2-induced tyrosine phosphorylation was a region that contained both of the entire JH7 and JH6 domains
- phosphorylation of IL-2Rβ after IL-2 in IL-2R+ fibroblasts [1]: it was only detected in cell lines that expressed Jak3/Jak1 chimeras having the entire JH7 and JH6 domains

B4: wild-type Jak3 (protein)
chain: B5 chain with A100Y
- IL-2 induced tyrosine phosphorylation of Jak3 in IL-2R+ fibroblasts [3]: Jak3 was rapidly tyrosine phosphorylated and associated with the IL-2 receptor complex
- IL-2 induced tyrosine phosphorylation of STAT5b in IL-2R+ fibroblasts [3]: Cells expressing wild type Jak3 (WT) exhibited tyrosine phosphorylation of STAT5b

B6: Jak3 Y100C (enzyme)
chain: B5 chain with A100C
notes: also called Y100C mutant; patient mutant; not shown: C-terminal FLAG tag (single copy) joined through a ClaI site
- IL-2 induced tyrosine phosphorylation of Jak3 in IL-2R+ fibroblasts [3]: no IL-2-induced phosphorylation of Jak3 Y100C was observed
- binding result [5]: no binding
